In patent publication US20210284724A1 (I MAB BIOPHARMA US, published 2021):

B1: 71F4A3-VH2VL2 (Fab, V domains shown)
VH: EVQLVQSGGGLVQPGGSLRLSCAASGIDFSRYWMSWVRQAPGKGLEWVAEINPDSSTINYAPSLKDRFTISRDNAKNSLYLQMNSLRAEDTAVYYCARQDDYEYYAMDYWGQGTTVTVSS
VL: DIQMTQSPSSLSASVGDRVTITCKASQDVNTGVAWYQQKPGKAPKLLIYSASYRYTGVPSRFSGSGSGTDFTFTISSVQPEDIATYYCQQYYSTPLTFGGGTKLEIK
notes: Humanized Fab, human gamma 1 and kappa constant domains
B2: 71F4A3-VH4VL2 (Fab, V domains shown)
VH: EVQLVQSGGGLVQPGGSLRLSCAASGIDFSRYWMSWVRQAPGKGLEWIGEINPDSSTINYAPSLKDRFTISRDNAKNSLYLQMNSVRAEDTAVYYCARQDDYEYYAMDYWGQGTTVTVSS
VL: DIQMTQSPSSLSASVGDRVTITCKASQDVNTGVAWYQQKPGKAPKLLIYSASYRYTGVPSRFSGSGSGTDFTFTISSVQPEDIATYYCQQYYSTPLTFGGGTKLEIK
notes: as for B1
B3: 71F4A3-VH4VL1 (Fab, V domains shown)
VH: EVQLVQSGGGLVQPGGSLRLSCAASGIDFSRYWMSWVRQAPGKGLEWIGEINPDSSTINYAPSLKDRFTISRDNAKNSLYLQMNSVRAEDTAVYYCARQDDYEYYAMDYWGQGTTVTVSS
VL: DIQMTQSPSSLSASVGDRVTITCKASQDVNTGVAWYQQKPGKAPKLLIYSASYRYTGVPSRFSGSGSGTDFTFTISSLQPEDIATYYCQQYYSTPLTFGGGTKLEIK
notes: as for B1
B4: 71F4A3-VH3VL2 (Fab, V domains shown)
VH: EVQLVQSGGGLVQPGGSLRLSCAASGIDFSRYWMSWVRQAPGKGLEWVGEINPDSSTINYAPSLKDRFTISRDNAKNSLYLQMNSVRAEDTAVYYCARQDDYEYYAMDYWGQGTTVTVSS
VL: DIQMTQSPSSLSASVGDRVTITCKASQDVNTGVAWYQQKPGKAPKLLIYSASYRYTGVPSRFSGSGSGTDFTFTISSVQPEDIATYYCQQYYSTPLTFGGGTKLEIK
notes: as for B1
B5: 411A11E9-VH2VL2 (Fab, V domains shown)
VH: EVQLVESGGGLVQPGGSLRLSCAASGFTFSDYYMAWVRQAPGKGLEWVASINYDGGDTYYRDSVKGRFTISRDNAKNSLYLQMNSLRAEDTAVYYCATEEDYDGSYVMDAWGQGTLVTVSS
VL: DIQMTQSPSSLSASVGDRVTITCKASQNINKELTWYQQKPGKAPKRLIYNTNILQTGVPSRFSGSGSGTEFTLTISSLQPEDFATYFCLQQSSLYTFGQGTKLEIK
notes: as for B1
B6: 411A11E9-VH3VL3 (Fab, V domains shown)
VH: EVQLVESGGGLVQPGGSLRLSCAVSGFTFSDYYMAWVRQAPGKGLEWVASINYDGGDTYYRDSVKGRFTISRDNAKNSLYLQMNSLRAEDTAVYYCATEEDYDGSYVMDAWGQGTLVTVSS
VL: DIQMTQSPSSLSASVGDRVTITCKASQNINKELTWYQQKPGKAPKRLIYNTNILQTGIPSRFSGSGSGTEFTLTISSLQPEDFATYFCLQQSSLYTFGQGTKLEIK
notes: as for B1
B7: 411A11E9-VH4VL3 (Fab, V domains shown)
VH: EVQLVESGGGLVQPGGSLRLSCAVSGFTFSDYYMAWVRQAPGKGLEWVASINYDGGDTYYRDSVKGRFTVSRDNAKNSLYLQMNSLRAEDTAVYYCATEEDYDGSYVMDAWGQGALVTVSS
VL: DIQMTQSPSSLSASVGDRVTITCKASQNINKELTWYQQKPGKAPKRLIYNTNILQTGIPSRFSGSGSGTEFTLTISSLQPEDFATYFCLQQSSLYTFGQGTKLEIK
notes: as for B1
B8: 411A11E9-VH2VL1 (Fab, V domains shown)
VH: EVQLVESGGGLVQPGGSLRLSCAASGFTFSDYYMAWVRQAPGKGLEWVASINYDGGDTYYRDSVKGRFTISRDNAKNSLYLQMNSLRAEDTAVYYCATEEDYDGSYVMDAWGQGTLVTVSS
VL: DIQMTQSPSSLSASVGDRVTITCKASQNINKELTWYQQKPGKAPKRLIYNTNILQTGVPSRFSGSGSGTEFTLTISSLQPEDFATYYCLQQSSLYTFGQGTKLEIK
notes: as for B1
B9: 411A11E9-VH4VL1 (Fab, V domains shown)
VH: EVQLVESGGGLVQPGGSLRLSCAVSGFTFSDYYMAWVRQAPGKGLEWVASINYDGGDTYYRDSVKGRFTVSRDNAKNSLYLQMNSLRAEDTAVYYCATEEDYDGSYVMDAWGQGALVTVSS
VL: DIQMTQSPSSLSASVGDRVTITCKASQNINKELTWYQQKPGKAPKRLIYNTNILQTGVPSRFSGSGSGTEFTLTISSLQPEDFATYYCLQQSSLYTFGQGTKLEIK
notes: as for B1
B10: 411A11E9-VH4VL2 (Fab, V domains shown)
VH: EVQLVESGGGLVQPGGSLRLSCAVSGFTFSDYYMAWVRQAPGKGLEWVASINYDGGDTYYRDSVKGRFTVSRDNAKNSLYLQMNSLRAEDTAVYYCATEEDYDGSYVMDAWGQGALVTVSS
VL: DIQMTQSPSSLSASVGDRVTITCKASQNINKELTWYQQKPGKAPKRLIYNTNILQTGVPSRFSGSGSGTEFTLTISSLQPEDFATYFCLQQSSLYTFGQGTKLEIK
notes: as for B1
B11: 411A11E9-VH4VL4 (Fab, V domains shown)
VH: EVQLVESGGGLVQPGGSLRLSCAVSGFTFSDYYMAWVRQAPGKGLEWVASINYDGGDTYYRDSVKGRFTVSRDNAKNSLYLQMNSLRAEDTAVYYCATEEDYDGSYVMDAWGQGALVTVSS
VL: DIQMTQSPSSLSASVGDRVTITCKASQNINKELTWYQQKPGKAPKRLIYNTNILQTGIPSRFSGSGSGTEYTLTISSLQPEDFATYFCLQQSSLYTFGQGTKLEIK
notes: as for B1
B12: 411A11E9-VH2VL3 (Fab, V domains shown)
VH: EVQLVESGGGLVQPGGSLRLSCAASGFTFSDYYMAWVRQAPGKGLEWVASINYDGGDTYYRDSVKGRFTISRDNAKNSLYLQMNSLRAEDTAVYYCATEEDYDGSYVMDAWGQGTLVTVSS
VL: DIQMTQSPSSLSASVGDRVTITCKASQNINKELTWYQQKPGKAPKRLIYNTNILQTGIPSRFSGSGSGTEFTLTISSLQPEDFATYFCLQQSSLYTFGQGTKLEIK
notes: as for B1
B13: 411A11E9-VH3VL1 (Fab, V domains shown)
VH: EVQLVESGGGLVQPGGSLRLSCAVSGFTFSDYYMAWVRQAPGKGLEWVASINYDGGDTYYRDSVKGRFTISRDNAKNSLYLQMNSLRAEDTAVYYCATEEDYDGSYVMDAWGQGTLVTVSS
VL: DIQMTQSPSSLSASVGDRVTITCKASQNINKELTWYQQKPGKAPKRLIYNTNILQTGVPSRFSGSGSGTEFTLTISSLQPEDFATYYCLQQSSLYTFGQGTKLEIK
notes: as for B1
B14: 411A11E9-VH1VL3 (Fab, V domains shown)
VH: EVQLVESGGGLVQPGGSLRLSCAASGFTFSDYYMAWVRQAPGKGLEWVASINYDGGDTYYRDSVKGRFTISRDNAKNSLYLQMNSLRAEDTAVYYCAREEDYDGSYVMDAWGQGTLVTVSS
VL: DIQMTQSPSSLSASVGDRVTITCKASQNINKELTWYQQKPGKAPKRLIYNTNILQTGIPSRFSGSGSGTEFTLTISSLQPEDFATYFCLQQSSLYTFGQGTKLEIK
notes: as for B1
B15: 411A11E9-VH1VL1 (Fab, V domains shown)
VH: EVQLVESGGGLVQPGGSLRLSCAASGFTFSDYYMAWVRQAPGKGLEWVASINYDGGDTYYRDSVKGRFTISRDNAKNSLYLQMNSLRAEDTAVYYCAREEDYDGSYVMDAWGQGTLVTVSS
VL: DIQMTQSPSSLSASVGDRVTITCKASQNINKELTWYQQKPGKAPKRLIYNTNILQTGVPSRFSGSGSGTEFTLTISSLQPEDFATYYCLQQSSLYTFGQGTKLEIK
notes: as for B1
B16: 21H12D9-VH1VL3 (Fab, V domains shown)
VH: QVQLVQSGAEVKKPGASVKVSCKASGYTFTDYYMNWVRQAPGQGLEWMGVINPNNGGTTYKEKFKGRVTMTRDTSISTAYMELSRLRSDDTAVYYCARDDYDAGYWGQGTLVTVSS
VL: DIQMTQSPSSVSTSVGDRVTITCKASQNVDTAVAWYQQKPGKAPKLLIYSASHRYTGVPSRFSGSGSGTDFTLTISSVQPEDFATYYCQQYTDFPLTFGQGTRLEIK
notes: Humanized Fab, human gamma 1 and kappa constant domains; also called 21VH12D9-VH1VL3
B17: 21H12D9-VH2VL3 (Fab, V domains shown)
VH: QVQLVQSGAEVVKPGASVKVSCKASGYTFTDYYMNWVRQAPGQGLEWMGVINPNNGGTTYKEKFKGRVTMTVDTSISTAYMELSRLRSDDTAVYYCARDDYDAGYWGQGTLVTVSS
VL: DIQMTQSPSSVSTSVGDRVTITCKASQNVDTAVAWYQQKPGKAPKLLIYSASHRYTGVPSRFSGSGSGTDFTLTISSVQPEDFATYYCQQYTDFPLTFGQGTRLEIK
notes: Humanized Fab, human gamma 1 and kappa constant domains; also called 21VH12D9-VH2VL3
B18: 21H12D9-VH3VL1 (Fab, V domains shown)
VH: QVQLVQSGAEVVKPGASVKVSCKASGYTFTDYYMNWVRQAPGQGLEWIGVINPNNGGTTYKEKFKGRATLTVDTSISTAYMELSRLRSDDTAVYYCARDDYDAGYWGQGTLVTVSS
VL: DIQMTQSPSSVSASVGDRVTITCKASQNVDTAVAWYQQKPGKAPKLLIYSASHRYTGVPSRFSGSGSGTDFTLTISSLQPEDFATYYCQQYTDFPLTFGQGTRLEIK
notes: Humanized Fab, human gamma 1 and kappa constant domains; also called 21VH12D9-VH3VL1
B19: 21H12D9-VH3VL2 (Fab, V domains shown)
VH: QVQLVQSGAEVVKPGASVKVSCKASGYTFTDYYMNWVRQAPGQGLEWIGVINPNNGGTTYKEKFKGRATLTVDTSISTAYMELSRLRSDDTAVYYCARDDYDAGYWGQGTLVTVSS
VL: DIQMTQSPSSVSTSVGDRVTITCKASQNVDTAVAWYQQKPGKAPKLLIYSASHRYTGVPSRFSGSGSGTDFTLTISSLQPEDFATYYCQQYTDFPLTFGQGTRLEIK
notes: Humanized Fab, human gamma 1 and kappa constant domains; also called 21VH12D9-VH3VL2
B20: 21H12D9-VH2VL1 (Fab, V domains shown)
VH: QVQLVQSGAEVVKPGASVKVSCKASGYTFTDYYMNWVRQAPGQGLEWMGVINPNNGGTTYKEKFKGRVTMTVDTSISTAYMELSRLRSDDTAVYYCARDDYDAGYWGQGTLVTVSS
VL: DIQMTQSPSSVSASVGDRVTITCKASQNVDTAVAWYQQKPGKAPKLLIYSASHRYTGVPSRFSGSGSGTDFTLTISSLQPEDFATYYCQQYTDFPLTFGQGTRLEIK
notes: Humanized Fab, human gamma 1 and kappa constant domains; also called 21VH12D9-VH2VL1

Molecular target: T1, human CXCL13 (human, UniProt O43927 23-109)
T1 construct: also called huCXCL13; rhCXCL13
T1 sequence (looked up): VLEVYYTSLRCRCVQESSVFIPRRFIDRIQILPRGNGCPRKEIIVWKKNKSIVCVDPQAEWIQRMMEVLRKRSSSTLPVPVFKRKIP
Assay: SPR Biacore, off-rate ranking of Fabs

Binder | Kd [nM] | koff [s⁻¹] | kon [M⁻¹ s⁻¹]
B1 | 0.607 | 0.00137 | 2.25e+06
B2 | 0.53 | 0.00136 | 2.57e+06
B3 | 0.59 | 0.001 | 1.7e+06
B4 | 0.557 | 0.00139 | 2.5e+06
B5 | 1.05 | 0.00271 | 2.58e+06
B6 | 1.01 | 0.00207 | 2.05e+06
B7 | 1.24 | 0.00266 | 2.14e+06
B8 | 1.19 | 0.00283 | 2.37e+06
B9 | 1.03 | 0.00281 | 2.73e+06
B10 | 0.944 | 0.00196 | 2.08e+06
B11 | 0.611 | 0.00107 | 1.74e+06
B12 | 1.42 | 0.00335 | 2.36e+06
B13 | 1.06 | 0.00242 | 2.29e+06
B14 | 3.37 | 0.00176 | 523000
B15 | 1.04 | 0.013 | 1.25e+07
B16 | 1.67 | 0.000975 | 584000
B17 | 1.98 | 0.000992 | 501000
B18 | 1.76 | 0.00131 | 744000
B19 | 1.47 | 0.00138 | 940000
B20 | 1.74 | 0.000991 | 570000
